These results are taken from patent US20170226161A1 (GlaxoSmithKline, published 2017).

Where “and” joins values, the source holds several entries; their conditions need not be identical. Identical values can stand only once.

The target in test [1] is factor H full length (Calbiochem) (UniProt P08603 19-1231).
Test [2] deals with T1, factor H comprising only domains 6-7 (UniProt P08603 321-443).
T1 sequence: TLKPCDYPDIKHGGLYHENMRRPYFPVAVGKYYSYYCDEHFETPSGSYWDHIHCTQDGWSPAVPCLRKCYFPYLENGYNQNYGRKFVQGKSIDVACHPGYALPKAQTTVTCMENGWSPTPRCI

The target in test [3] is T2, human factor H (fH), immobilised (human, UniProt P08603 19-1231).
T2 construct: also called human fH
T2 sequence (P08603 19-1231): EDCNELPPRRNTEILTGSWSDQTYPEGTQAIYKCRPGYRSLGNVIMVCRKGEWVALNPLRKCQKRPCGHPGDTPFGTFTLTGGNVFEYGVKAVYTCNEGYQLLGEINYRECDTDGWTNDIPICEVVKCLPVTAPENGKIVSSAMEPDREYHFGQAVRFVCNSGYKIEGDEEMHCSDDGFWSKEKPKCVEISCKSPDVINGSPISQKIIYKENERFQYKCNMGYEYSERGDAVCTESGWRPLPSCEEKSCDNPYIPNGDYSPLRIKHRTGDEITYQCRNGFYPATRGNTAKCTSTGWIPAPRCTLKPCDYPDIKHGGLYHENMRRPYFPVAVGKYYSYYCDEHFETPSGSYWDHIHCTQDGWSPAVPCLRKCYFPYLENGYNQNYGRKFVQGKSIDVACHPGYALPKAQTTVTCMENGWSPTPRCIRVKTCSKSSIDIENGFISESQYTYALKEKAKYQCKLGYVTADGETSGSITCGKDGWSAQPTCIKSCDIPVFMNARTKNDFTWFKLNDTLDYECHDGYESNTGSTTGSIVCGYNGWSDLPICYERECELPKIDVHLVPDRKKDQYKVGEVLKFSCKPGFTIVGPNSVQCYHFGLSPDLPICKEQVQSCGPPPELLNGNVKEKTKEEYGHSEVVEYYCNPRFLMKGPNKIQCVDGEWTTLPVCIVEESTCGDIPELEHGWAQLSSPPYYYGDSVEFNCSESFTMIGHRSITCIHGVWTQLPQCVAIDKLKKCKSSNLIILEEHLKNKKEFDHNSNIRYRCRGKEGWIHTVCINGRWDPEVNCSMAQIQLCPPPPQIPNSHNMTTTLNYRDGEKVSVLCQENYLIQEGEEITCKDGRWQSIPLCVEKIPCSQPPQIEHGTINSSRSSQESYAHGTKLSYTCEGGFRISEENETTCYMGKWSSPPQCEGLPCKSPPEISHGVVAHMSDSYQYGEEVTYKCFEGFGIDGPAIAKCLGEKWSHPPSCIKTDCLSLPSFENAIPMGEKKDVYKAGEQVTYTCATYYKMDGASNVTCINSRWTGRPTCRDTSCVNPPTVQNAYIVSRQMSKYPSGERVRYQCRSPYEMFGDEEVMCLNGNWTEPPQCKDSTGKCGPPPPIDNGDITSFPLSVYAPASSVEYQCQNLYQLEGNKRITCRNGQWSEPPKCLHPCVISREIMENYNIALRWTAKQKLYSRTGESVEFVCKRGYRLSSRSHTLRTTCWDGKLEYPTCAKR
The test can be described thus: SPR (FIG. 6).

factor H full length (Calbiochem), sequence (P08603 19-1231): as above

B1: 231 S fusion polypeptide (v2-v3-v1 fHbp, stabilised) (other)
chain: MGPDSDRLQQRRVAADIGAGLADALTAPLDHKDKSLQSLTLDQVVRKNEKLKLAAQGAEKTYGNGDSLNTGKLKNDKVSRFDFIRQIEVDGQLITLESGEFQIYKQDHSAVVALQIEKINNPDKIDSLINQRSFRVSGLGGEHTAFNQLPDGKAEYHGKAFSSDDAGGKLTYTIDFAAKQGHGKIEHLKTPEQNVELAAAELKADEKSHAVILGDTRYGSEEKGTYHLALFGDRAQEIAGSATVKIGEKVHEIGIAGKQGSGGGGVAADIGTGLADALTAPLDHKDKGLKSLTLEDVIPQNGTLTLSAQGAEKTFKAGDKDNSLNTGKLKNDKISRFDFVQKIEVDGQTITLASGEFQIYKQNHSAVVALQIEKINNPDKTDSLINQRSFRVSGLGGEHTAFNQLPGGKAEYHGKAFSSDDPNGRLHYSIDFTKKQGYGRIEHLKTLEQNVELAAAELKADEKSHAVILGDTRYGSEEKGTYHLALFGDRAQEIAGSATVKIGEKVHEIGIAGKQGSGGGGVAADIGAGLADALTAPLDHKDKGLQSLTLDQSVSKNEKLKLAAQGAEKTYGNGDSLNTGKLKNDKVSRFDFIRQIEVDGQLITLESGEFQVYKQSHSALTAFQTEQIQDSEHSGKMVAKRQFRIGDIAGEHTSFDKLPEGGRATYRGTAFGSDDAGGKLTYTIDFAAKQGNGKIEHLKSPELNVDLAAADIKPDGKRHAVISGSVLYNQAEKGSYSLGIFGGKAQEVAGSAEVKTVNGIRHIGLAAKQ
For B1, in test [1], binding was characterised by a dissociation constant (Kd) of 3100 nM, the “Ration KD wt/x (residual binding)” value turned out to be 0.1, the koff is 0.064 s⁻¹ and the kon is 21000 M⁻¹ s⁻¹. Besides, in test [2], the Kd was 158 nM and 280 nM; the “Ration KD wt/x (residual binding)” value is 0.076; the koff was determined as 0.11 s⁻¹; the kon was found to be 710000 M⁻¹ s⁻¹.

B2: v3 fHbp with S32V (SEQ ID NO: 17 numbering) (other)
chain: VAADIGTGLADALTAPLDHKDKGLKSLTLEDVIPQNGTLTLSAQGAEKTFKAGDKDNSLNTGKLKNDKISRFDFVQKIEVDGQTITLASGEFQIYKQNHSAVVALQIEKINNPDKTDSLINQRSFLVSGLGGEHTAFNQLPGGKAEYHGKAFSSDDPNGRLHYSIDFTKKQGYGRIEHLKTLEQNVELAAAELKADEKSHAVILGDTRYGSEEKGTYHLALFGDRAQEIAGSATVKIGEKVHEIGIAGKQ
Take B2: the “fold reduction of the SPR peak against wild-type v3” value in test [3] was around 2 fold.

What is called Kd is the concentration at which binding is half-saturated. Usually koff stands for the first-order rate constant of dissociation. Higher therefore signals a short-lived complex. The term kon denotes the second-order rate constant of association. Read a high kon as fast association.
